Reference: US20120058499

How the values were obtained:
[1] = target: ubiquitin-7-amino-4-methylcoumarin, P0CG47
[2] = target: ubiquitin-rhodamine110, P0CG47
[3] = target: T1, Z-Arg-Leu-Arg-Gly-Gly (SEQ ID NO: 1)-amino-luciferin
T1 chain: RLRGG

[4] = target: hSUMO2-amino-luciferin, P61956
Sequence of hSUMO2-amino-luciferin, P61956 (P61956 1-93): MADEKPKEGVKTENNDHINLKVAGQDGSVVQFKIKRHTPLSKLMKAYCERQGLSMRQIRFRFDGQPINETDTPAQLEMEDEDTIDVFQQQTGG

Sequence of ubiquitin-7-amino-4-methylcoumarin, P0CG47 (P0CG47 whole entry, looked up): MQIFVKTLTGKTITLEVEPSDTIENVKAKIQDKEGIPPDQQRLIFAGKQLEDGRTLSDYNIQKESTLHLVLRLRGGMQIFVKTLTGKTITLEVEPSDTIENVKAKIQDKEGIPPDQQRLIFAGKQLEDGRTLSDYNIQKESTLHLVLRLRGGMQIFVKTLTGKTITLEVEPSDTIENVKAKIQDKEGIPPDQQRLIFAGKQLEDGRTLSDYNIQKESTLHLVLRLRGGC
Sequence of ubiquitin-rhodamine110, P0CG47 (P0CG47 whole entry, looked up): as above

B1: JosD2 (protein)
chain: MSQAPGAQPSPPTVYHERQRLELCAVHALNNVLQQQLFSQEAADEICKRLAPDSRLNPHRSLLGTGNYDVNVIMAALQGLGLAAVWWDRRRPLSQLALPQVLGLILNLPSPVSLGLLSLPLRRRHWVALRQVDGVYYNLDSKLRAPEALGDEDGVRAFLAAALAQGLCEVLLVVTKEVEEKGSWLRTD
- Signal to Background, fluorescence, DUB 10 nM [1]: 2.1 S/B
- Signal to Background, fluorescence, DUB 10 nM [2]: 8.2 S/B
- Signal to Background, luminescence, DUB 10 nM (Ub(1-76)-aminoluciferin): 760 S/B
- Signal to Background, luminescence, DUB 10 nM [3]: 2.1 S/B

B2: Ataxin3-like (protein)
chain: MDFIFHEKQEGFLCAQHCLNNLLQGEYFSPVELASIAHQLDEEERMRMAEGGVTSEEYLAFLQQPSENMDDTGFFSIQVISNALKFWGLEIIHFNNPEYQKLGIDPINERSFICNYKQHWFTIRKFGKHWFNLNSLLAGPELISDTCLANFLARLQQQAYSVFVVKGDLPDCEADQLLQIISVEEMDTPKLNGKKLVKQKEHRVYKTVLEKVSEESDESGTSDQDEEDFQRALELSRQETNREDEHLRSTIELSMQGSSGNTSQDLPKTSCVTPASEQPKKIKEDYFEKHQQEQKQQQQQSDLPGHSSYLHERPTTSSRAIESDLSDDISEGTVQAAVDTILEIMRKNLKIKGEK
- Signal to Background, fluorescence, DUB 10 nM [1]: 1.1 S/B
- Signal to Background, fluorescence, DUB 10 nM [2]: 1.6 S/B
- Signal to Background, luminescence, DUB 10 nM (Ub(1-76)-aminoluciferin): 120 S/B
- Signal to Background, luminescence, DUB 10 nM [3]: 1.5 S/B

B3: Otubain2 (Otub2) (protein)
chain: MSETSFNLISEKCDILSILRDHPENRIYRRKIEELSKRFTAIRKTKGDGNCFYRALGYSYLESLLGKSREIFKFKERVLQTPNDLLAAGFEEHKFRNFFNAFYSVVELVEKDGSVSSLLKVFNDQSASDHIVQFLRLLTSAFIRNRADFFRHFIDEEMDIKDFCTHEVEPMATECDHIQITALSQALSIALQVEYVDEMDTALNHHVFPEAATPSVYLLYKTSHYNILYAADKH
- Signal to Background, fluorescence, DUB 10 nM [1]: 1.2 S/B
- Signal to Background, fluorescence, DUB 10 nM [2]: 1.7 S/B
- Signal to Background, luminescence, DUB 10 nM (Ub(1-76)-aminoluciferin): 980 S/B
- Signal to Background, luminescence, DUB 10 nM [3]: 1.3 S/B

B4: UCHL3 (ubiquitin carboxyl-terminal hydrolase isozyme L3) (protein)
chain: MEGQRWLPLEANPEVTNQFLKQLGLHPNWQFVDVYGMDPELLSMVPRPVCAVLLLFPITEKYEVFRTEEEEKIKSQGQDVTSSVYFMKQTISNACGTIGLIHAIANNKDKMHFESGSTLKKFLEESVSMSPEERARYLENYDAIRVTHETSAHEGQTEAPSIDEKVDLHFIALVHVDGHLYELDGRKPFPINHGETSDETLLEDAIEVCKKFMERDPDELRFNAIALSAA
- S/B against the S/B for Ub-AMC, UCHL3 0.01 nM (Ub(1-76)-aminoluciferin): ~50-fold greater than the S/B for Ub-AMC
- S/B against the S/B for Ub-rhodamine110, UCHL3 0.01 nM (Ub(1-76)-aminoluciferin): ~200-fold greater than the S/B for Ub-rhodamine110
- signal to background (S/B) ratio, bioluminescence, 100 nM substrate, 32 pM UCHL3 (Ub(1-76)-aminoluciferin): the same S/B ratio of 1000 was obtained with 100 nM Ub-amino-luciferin and UCHL3 at a concentration of 32 pM
- signal to background (S/B) ratio, bioluminescence, 20 uM substrate, 40 nM UCHL3 [3]: a signal to background (S/B) ratio of ~1000 was obtained

B5: AMSH (associated molecule with the SH3 domain of STAM) (protein)
chain: MSDHGDVSLPPEDRVRALSQLGSAVEVNEDIPPRRYFRSGVEIIRMASIYSEEGNIEHAFILYNKYITLFIEKLPKHRDYKSAVIPEKKDTVKKLKEIAFPKAEELKAELLKRYTKEYTEYNEEKKKEAEELARNMAIQQELEKEKQRVAQQKQQQLEQEQFHAFEEMIRNQELEKERLKIVQEFGKVDPGLGGPLVPDLEKPSLDVFPTLTVSSIQPSDCHTTVRPAKPPVVDRSLKPGALSNSESIPTIDGLRHVVVPGRLCPQFLQLASANTARGVETCGILCGKLMRNEFTITHVLIPKQSAGSDYCNTENEEELFLIQDQQGLITLGWIHTHPTQTAFLSSVDLHTHCSYQMMLPESVAIVCSPKFQETGFFKLTDHGLEEISSCRQKGFHPHSKDPPLFCSCSHVTVVDRAVTITDLR
- Signal to Background, luminescence, DUB 10 nM [3]: 1.4 S/B

B6: UCHL5 (protein)
chain: MTGNAGEWCLMESDPGVFTELIKGFGCRGAQVEEIWSLEPENFEKLKPVHGLIFLFKWQPGEEPAGSVVQDSRLDTIFFAKQVINNACATQAIVSVLLNCTHQDVHLGETLSEFKEFSQSFDAAMKGLALSNSDVIRQVHNSFARQQMFEFDTKTSAKEEDAFHFVSYVPVNGRLYELDGLREGPIDLGACNQDDWISAVRPVIEKRIQKYSEGEIRFNLMAIVSDRKMIYEQKIAELQRQLAEEEPMDTDQGNSMLSAIQSEVAKNQMLIEEEVQKLKRYKIENIRRKHNYLPFIMELLKTLAEHQQLIPLVEKAKEKQNAKKAQETK
- Signal to Background, luminescence, DUB 10 nM [3]: 1.4 S/B

B7: USP34 (protein)
chain: VGLTNLGATCYLASTIQQLYMIPEARQAVFTAKYSEDMKHKTTLLELQKMFTYLMESECKAYNPRPFCKTYTMDKQPLNTGEQKDMTEFFTDLITKIEEMSPELKNTVKSLFGGVITNNVVSLDCEHVSQTAEEFYTVRCQVADMKNIYESLDEVTIKDTLEGDNMYTCSHCGKKVRAEKRACFKKLPRILSFNTMRYTFNMVTMMKEKVNTHFSFPLRLDMTPYTEDFLMGKSERKEGFKEVSDHSKDSESYEYDLIGVTVHTGTADGGHYYSFIRDIVNPHAYKNNKWYLFNDAEVKPFDSAQLASECFGGEMTTKTYDSVTDKFMDFSFEKTHSAYMLFYKRM
- luminescence signal (S/B), enzyme 200 pM [4]: hSUMO2-amino-luciferin yielded virtually no signal with the DUBs USP34, USP7, and USP8 at concentrations equal to 200 pM

B8: USP8 (protein)
chain: MPAVASVPKELYLSSSLKDLNKKTEVKPEKISTKSYVHSALKIFKTAEECRLDRDEERAYVLYMKYVTVYNLIKKRPDFKQQQDYFHSILGPGNIKKAVEEAERLSESLKLRYEEAEVRKKLEEKDRQEEAQRLQQKRQETGREDGGTLAKGSLENVLDSKDKTQKSNGEKNEKCETKEKGAITAKELYTMMTDKNISLIIMDARRMQDYQDSCILHSLSVPEEAISPGVTASWIEAHLPDDSKDTWKKRGNVEYVVLLDWFSSAKDLQIGTTLRSLKDALFKWESKTVLRNEPLVLEGGYENWLLCYPQYTTNAKVTPPPRRQNEEVSISLDFTYPSLEESIPSKPAAQTPPASIEVDENIELISGQNERMGPLNISTPVEPVAASKSDVSPIIQPVPSIKNVPQIDRTKKPAVKLPEEHRIKSESTNHEQQSPQSGKVIPDRSTKPVVFSPTLMLTDEEKARIHAETALLMEKNKQEKELRERQQEEQKEKLRKEEQEQKAKKKQEAEENEITEKQQKAKEEMEKKESEQAKKEDKETSAKRGKEITGVKRQSKSEHETSDAKKSVEDRGKRCPTPEIQKKSTGDVPHTSVTGDSGSGKPFKIKGQPESGILRTGTFREDTDDTERNKAQREPLTRARSEEMGRIVPGLPSGWAKFLDPITGTFRYYHSPTNTVHMYPPEMAPSSAPPSTPPTHKAKPQIPAERDREPSKLKRSYSSPDITQAIQEEEKRKPTVTPTVNRENKPTCYPKAEISRLSASQIRNLNPVFGGSGPALTGLRNLGNTCYMNSILQCLCNAPHLADYFNRNCYQDDINRSNLLGHKGEVAEEFGIIMKALWTGQYRYISPKDFKITIGKINDQFAGYSQQDSQELLLFLMDGLHEDLNKADNRKRYKEENNDHLDDFKAAEHAWQKHKQLNESIIVALFQGQFKSTVQCLTCHKKSRTFEAFMYLSLPLASTSKCTLQDCLRLFSKEEKLTDNNRFYCSHCRARRDSLKKIEIWKLPPVLLVHLKRFSYDGRWKQKLQTSVDFPLENLDLSQYVIGPKNNLKKYNLFSVSNHYGGLDGGHYTAYCKNAARQRWFKFDDHEVSDISVSSVKSSAAYILFYTSLGPRVTDVAT
- S/B against the S/B for both Ub-AMC and Ub-Rhodamine110, enzyme 0.5 nM (Ub(1-76)-aminoluciferin): increased by ~100-fold relative to the S/B for both Ub-AMC and Ub-Rhodamine110
- luminescence signal (S/B), enzyme 200 pM [4]: hSUMO2-amino-luciferin yielded virtually no signal with the DUBs USP34, USP7, and USP8 at concentrations equal to 200 pM

B9: SENP1 (protein)
chain: EFPEITEEMEKEIKNVFRNGNQDEVLSEAFRLTITRKDIQTLNHLNWLNDEIINFYMNMLMERSKEKGLPSVHAFNTFFFTKLKTAGYQAVKRWTKKVDVFSVDILLVPIHLGVHWCLAVVDFRKKNITYYDSMGGINNEACRILLQYLKQESIDKKRKEFDTNGWQLFSKKSQEIPQQMNGSDCGMFACKYADCITKDRPINFTQQHMPYFRKRMVWEILHRKLL
- luminescence signal (S/B), enzyme 200 pM [4]: SENP1, SENP2, and SENP6 (200 pM) on the other hand gave strong signals with hSUMO2-amino-luciferin

B10: SENP2 (sentrin-specific protease 2) (protein)
chain: DLLELTEDMEKEISNALGHGPQDEILSSAFKLRITRGDIQTLKNYHWLNDEVINFYMNLLVERNKKQGYPALHVFSTFFYPKLKSGGYQAVKRWTKGVNLFEQEIILVPIHRKVHWSLVVIDLRKKCLKYLDSMGQKGHRICEILLQYLQDESKTKRNSDLNLLEWTHHSMKPHEIPQQLNGSDCGMFTCKYADYISRDKPITFTQHQMPLFRKKMVWEILHQQLL
- luminescence signal (S/B), enzyme 200 pM [3]: Z-Arg-Leu-Arg-Gly-Gly (SEQ ID NO: 1)-amino-luciferin also gave signals with SENP2 and SENP6 (200 pM)
- luminescence signal (S/B), enzyme 200 pM [4]: SENP1, SENP2, and SENP6 (200 pM) on the other hand gave strong signals with hSUMO2-amino-luciferin

B11: SENP6 (protein)
chain: EEETGENHTIFIGPVEKLIVYPPPPAKGGISVTNEDLHCLNEGEFLNDVIIDFYLKYLVLEKLKKEDADRIHIFSSFFYKRLNQRERRNHETTNLSIQQKRHGRVKTWTRHVDIFEKDFIFVPLNEAAHWFLAVVCFPGLEKPKYEPNPHYHENAVIQKCSTVEDSCISSSASEMESCSQNSSAKPVIKKMLNKKHCIAVIDSNPGQEESDPRYKRNICSVKYSVKKINHTASENEEFNKGESTSQKVADRTKSENGLQNESLSSTHHTDGLSKIRLNYSDESPEAGKMLEDELVDFSEDQDNQDDSSDDGFLADDNCSSEIGQWHLKPTICKQPCILLMDSLRGPSRSNVVKILREYLEVEWEVKKGSKRSFSKDVMKGSNPKVPQQNNFSDCGVYVLQYVESFFENPILSFELPMNLANWFPPPRMRTKREEIRNIILKLQEDQSKEKRKHKDTYSTEAPLGEGTEQYVNSISD
- luminescence signal (S/B), enzyme 200 pM [3]: Z-Arg-Leu-Arg-Gly-Gly (SEQ ID NO: 1)-amino-luciferin also gave signals with SENP2 and SENP6 (200 pM)
- luminescence signal (S/B), enzyme 200 pM [4]: SENP1, SENP2, and SENP6 (200 pM) on the other hand gave strong signals with hSUMO2-amino-luciferin

B12: USP2core (the common catalytic core domain of the two isoforms of USP2, USP2a and USP2b) (protein)
chain: NSKSAQGLAGLRNLGNTCFMNSILQCLSNTRELRDYCLQRLYMRDLHHGSNAHTALVEEFAKLIQTIWTSSPNDVVSPSEFKTQIQRYAPRFVGYNQQDAQEFLRFLLDGLHNEVNRVTLRPKSNPENLDHLPDDEKGRQMWRKYLEREDSRIGDLFVGQLKSSLTCTDCGYCSTVFDPFWDLSLPIAKRGYPEVTLMDCMRLFTKEDVLDGDEKPTCCRCRGRKRCIKKFSIQRFPKILVLHLKRFSESRIRTSKLTTFVNFPLRDLDLREFASENTNHAVYNLYAVSNHSGTTMGGHYTAYCRSPGTGEWHTFNDSSVTPMSSSQVRTSDAYLLFYELASPPSRM
- S/B against the S/B for both Ub-AMC and Ub-Rhodamine110, enzyme 0.5 nM (Ub(1-76)-aminoluciferin): increased by ~100-fold relative to the S/B for both Ub-AMC and Ub-Rhodamine110
